# From paper PMC3946203, “Specificity of ε and Non-ε Isoforms of Arabidopsis 14-3-3 Proteins Towards the H^+-ATPase and Other Targets” (PLoS ONE, 2014)
# Where no end group is shown, it is not given here. [ ]: non-standard residue; d: D form. The star is where a group is joined. Biotin = O=C1N[C@H]2[C@H](CS[C@H]2CCCCC(=O)*)N1; pT = C[C@@H](OP(=O)(O)O)[C@H](N)C(=O)O
# T1: GF14ωG213N (Arabidopsis, UniProt Q01525 1-259, G213N, 32P-phosphate on the phosphorylation site at the junction between GST and the cloned protein (bead binding assay))
# T1 construct: GF14 omega, Arabidopsis, At1g78300, Gly213 changed into Asn; also called GF14ω loop 8 mutant; source: E. coli BL21(DE3), GST fusion (pGEX-2TK)
# T1 sequence (looked up): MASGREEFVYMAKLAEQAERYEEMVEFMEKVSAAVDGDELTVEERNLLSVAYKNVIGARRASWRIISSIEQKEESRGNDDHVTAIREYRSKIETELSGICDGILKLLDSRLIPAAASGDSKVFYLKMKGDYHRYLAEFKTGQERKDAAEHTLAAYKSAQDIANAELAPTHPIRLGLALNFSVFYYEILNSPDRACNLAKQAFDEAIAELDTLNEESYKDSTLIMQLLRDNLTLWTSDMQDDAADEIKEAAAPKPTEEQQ
# T2: GF14λ (Arabidopsis, UniProt P48349 1-248, 32P-phosphate on the phosphorylation site at the junction between GST and the cloned protein (overlay and bead binding assays))
# T2 construct: 14-3-3 protein GF14 lambda, Arabidopsis, At5g10450; cDNA by RT-PCR with primers corresponding to the coding region; also called GF14 lambda; GST-GF14λ
# T2 sequence (looked up): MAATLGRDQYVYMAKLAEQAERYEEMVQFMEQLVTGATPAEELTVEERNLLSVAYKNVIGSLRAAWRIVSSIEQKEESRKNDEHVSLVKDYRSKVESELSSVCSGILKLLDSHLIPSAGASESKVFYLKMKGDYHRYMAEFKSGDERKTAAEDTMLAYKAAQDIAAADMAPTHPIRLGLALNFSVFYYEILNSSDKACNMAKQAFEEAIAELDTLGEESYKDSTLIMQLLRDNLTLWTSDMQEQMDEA
# T3: GF14χ (Arabidopsis, UniProt P42643 1-267, 32P-phosphate on the phosphorylation site at the junction between GST and the cloned protein (overlay and bead binding assays))
# T3 construct: 14-3-3 protein GF14 chi, Arabidopsis, At4g09000; cDNA by RT-PCR with primers corresponding to the coding region; also called GF14 chi; GST-GF14χ
# T3 sequence (looked up): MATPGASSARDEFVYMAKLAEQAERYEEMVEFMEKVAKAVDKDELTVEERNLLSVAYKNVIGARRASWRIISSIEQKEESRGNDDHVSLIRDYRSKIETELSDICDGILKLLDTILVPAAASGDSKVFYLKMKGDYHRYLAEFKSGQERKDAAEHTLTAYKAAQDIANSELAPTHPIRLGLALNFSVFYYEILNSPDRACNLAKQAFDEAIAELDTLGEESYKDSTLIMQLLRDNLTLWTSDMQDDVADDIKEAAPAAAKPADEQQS
# T4: GF14κ (Arabidopsis, UniProt P48348 1-248, 32P-phosphate on the phosphorylation site at the junction between GST and the cloned protein (overlay and bead binding assays))
# T4 construct: 14-3-3 protein GF14 kappa, Arabidopsis, At5g65430; cDNA by RT-PCR with primers corresponding to the coding region; also called GF14 kappa; GST-GF14κ
# T4 sequence (looked up): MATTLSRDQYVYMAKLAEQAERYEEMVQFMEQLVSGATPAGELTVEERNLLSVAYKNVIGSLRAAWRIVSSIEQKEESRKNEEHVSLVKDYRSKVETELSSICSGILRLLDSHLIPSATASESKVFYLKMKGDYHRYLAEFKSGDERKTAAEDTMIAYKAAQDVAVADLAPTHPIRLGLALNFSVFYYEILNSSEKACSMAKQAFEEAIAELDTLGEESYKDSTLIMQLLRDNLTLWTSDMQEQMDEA
# B1: bL15Vp peptide (peptide)
# peptide: Biotin-LKGLDIDTIQQNY[pT]V
# notes: last 15 amino acids of the maize plasma membrane H+-ATPase isoform 2 (MHA2); also called phosphorylated biotinyl-peptide reproducing the last 15 residues of the MHA2 H+-ATPase; source: synthetic peptide (Neosystem, Strasbourg)
# B2: GF14εN211G (natural protein, Arabidopsis, UniProt P48347 1-254, looked up)
# chain: MENEREKQVYLAKLSEQTERYDEMVEAMKKVAQLDVELTVEERNLVSVGYKNVIGARRASWRILSSIEQKEESKGNDENVKRLKNYRKRVEDELAKVCNDILSVIDKHLIPSSNAVESTVFFYKMKGDYYRYLAEFSSGAERKEAADQSLEAYKAAVAAAENGLAPTHPVRLGLALNFSVFYYEILNSPESACQLAKQAFDDAIAELDSLGEESYKDSTLIMQLLRDNLTLWTSDLNEEGDERTKGADEPQDEN
# modifications: 32P-phosphate on the phosphorylation site at the junction between GST and the cloned protein (bead binding assay)
# notes: GF14 epsilon, Arabidopsis, At1g22300, Asn211 changed into Gly; also called GF14ε loop 8 mutant; source: E. coli BL21(DE3), GST fusion (pGEX-2TK)
# What was measured:
# Details in all cases: both partners purified
# GF14εN211G = biological target: B2; assay: pull-down; bL15Vp on streptavidin-agarose magnetic beads; 0.1 nmol 32P-labeled GF14 wild type or loop 8 mutant in buffer HT without Mg2+; FC not told for this experiment
# GF14ωG213N = biological target: T1, GF14ωG213N; assay: pull-down; bL15Vp on streptavidin-agarose magnetic beads; 0.1 nmol 32P-labeled GF14 wild type or loop 8 mutant in buffer HT with 5 mM Mg2+; FC not told for this experiment
# GF14λ = biological target: T2, GF14λ; assay: pull-down; 0.05 nmol bL15Vp on streptavidin-agarose magnetic beads; 0.1 nmol 32P-labeled GF14 in 50 µl buffer HT, 60 min, room temperature; without FC; bound radioactivity counted
# GF14χ = biological target: T3, GF14χ; assay: as above
# GF14κ = biological target: T4, GF14κ; assay: as above
# bL15Vp peptide = biological target: B1; assay: pull-down; bL15Vp on streptavidin-agarose magnetic beads; 0.1 nmol 32P-labeled GF14 wild type or loop 8 mutant in buffer HT with 5 mM Mg2+; FC not told for this experiment
Binder,binding result (GF14εN211G),binding result (GF14ωG213N),binding result (GF14λ),binding result (GF14χ),binding result (GF14κ),fold more protein bound with 5 mM Mg2+ (reference not clear: wild type GF14ε or the mutant without Mg2+) (bL15Vp peptide) [fold]
B1,binds,binds,binds,binds,binds,
B2,,,,,,> 5
